Consider 28 sequences from the supplement of paper PMC9170038.

The data set concerns MS2 coat protein. The data set can be described thus: apparent KD of MS2 coat protein; designed switch direction (-1 OFF switch, 1 ON switch): -1; higher = weaker reporter binding. Summed up: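 On Illumina chips, designed RNA switches with common flanks were made by stalled E. coli RNA polymerase. Titrations with SNAP-549-labelled MS2 coat protein, doubling from 0.7 or 1.5 nM to 3 µM, were done with no input, with 200 uM small-molecule ligand, or with an oligonucleotide input. Apparent KD is the median per design over clusters, from curve fits of normalised cluster fluorescence.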

[1] abbreviates: input ligand: microRNA oligo, concentration not stated.
[2] abbreviates: Eterna round: R95, input ligand: microRNA oligo, concentration not stated.
The mark [3] stands for this setting: Eterna round: R95, input ligand: FMN 200 uM.
Where [4] appears, read: Eterna round: R95, input ligand: none.

As for “CGAUGCUCGAAUCCACAUGAGGAUCACCCAUGUCGAGUUAGCGAGGAUAUCGGUGACACAUAGUAUGAGAAGGCGCGAACCUGA [Ex NG3 #24] (Eterna round: R96, puzzle: Exclusion NG 3)”, the “apparent KD of MS2 coat protein” value runs as follows: (input ligand: FMN 200 uM) 103 nM; under setting [1], 28 nM; (input ligand: none) 41.7 nM.
Take “CGAUGUUAUGUCAGGAUAUGCGUUGCGAAAGCAAUGUAGAAGGGACAUGAGGAUCACCCAUGUGCUAACCAUCG [Omei A 10] (puzzle: Brourd's mod of Exclusion 4)”: under setting [2], the “apparent KD of MS2 coat protein” value was determined as 17.2 nM.
In the case of “CGCAAAACCGUAAGGAUAUCCUUUCCGAAAGGGACGGAGAAGGUACAUGAGGAUCACCCAUGUCCUCCGAGCUG [Eternabot (Original) Solution 18] (Eterna round: R97, puzzle: Brourd's mod of Exclusion 4)”, the “apparent KD of MS2 coat protein” value is 20.6 nM (input ligand: FMN 200 uM) and 18 nM (input ligand: none).
In the case of “CGCAUGUGAGGAUAUUAGUAGUAGUCAGAAAAGACUAUUACUGAGAAGGUACAUGAGGAUCACCCAUGUAUCCG [Mat - Exclusion 4 - Eli Mod - D46] (Eterna round: R97, puzzle: Exclusion 4)”, the “apparent KD of MS2 coat protein” value (input ligand: FMN 200 uM) was determined as 25.7 nM and the “apparent KD of MS2 coat protein” value (input ligand: none) is 13.9 nM.
“CGCCGAGUGUUAGGAUAUUACAAGCAUAAGCGGUAAGAAGGAACAUGAGGAUCACCCAUGUACUGUCCCAUCGGGACAGGUUUC [Qule] (Eterna round: R96, puzzle: Exclusion NG 1)”: the “apparent KD of MS2 coat protein” value was determined as 292 nM (input ligand: FMN 200 uM), 44.3 nM under setting [1] and 76.8 nM (input ligand: none).
Take “CGCUAUGCCGAGGAUAUUCUUGGUAUGCAUCUAGGAGAAGGCGGCACAUGAGGAUCACCCAUGUCAAAACAUAU [Eternabot (L1) Solution 97] (Eterna round: R97, puzzle: Exclusion 6)”: the “apparent KD of MS2 coat protein” value reads like this: (input ligand: FMN 200 uM) 29 nM; (input ligand: none) 28.4 nM.
For the sequence “CGCUGGUGAGGAUAUGGGUGUUUUUACAUGAGGAUCACCCAUGUGGAGUAGCAUGUGGGUCCAGAAGGCGCGGGUG [-24.2, -22.5 kcal, 20% A] (Eterna round: R97, puzzle: Exclusion 5)”, the “apparent KD of MS2 coat protein” value amounted to 682 nM (input ligand: FMN 200 uM) and 435 nM (input ligand: none).
The matching figures for “CGCUGUUGAGGAUAUGGGCGUGGGUACAUGAGGAUCACCCAUGUGUUGUCGCGCGUGGGUCUAGAAGGCGGCGGUG [-29.1, -27.2 kcal, 16% A] (Eterna round: R97, puzzle: Exclusion 5)”: 12.1 nM and 13.8 nM.
“CGGAGCGUAGGUAGGUUCAACAUGAGGAUCACCCAUGUCUCACAAGCUUUUUGCUCAUCUUAUUGUACCUUGGUGCU [Sensor v3, turn-off variant 1 (MOD of JL )] (puzzle: Sensor v3, turn-off variant 1)”: the “apparent KD of MS2 coat protein” value is, setting by setting: under setting [3], 117 nM; under setting [2], 37.3 nM; under setting [4], 144 nM.
As to “CGGGAGGGACAAGCUUUUUGCACGUCUGUUAUUGAUGCUACAUGAGGAUCACCCAUGUUUAGGGUGUGUGAGGAUGG [JR_SV3TOV2_Sub052] (puzzle: Sensor v3, turn-off variant 2)”, the “apparent KD of MS2 coat protein” value under setting [3] is 437 nM, the “apparent KD of MS2 coat protein” value under setting [2] is 239 nM and the “apparent KD of MS2 coat protein” value under setting [4] worked out at 571 nM.
Take “CGGGCCCGGGCAGGAUAUGCGGCGGCCCGGGCCGGUGGGCCCGGGCCGACAUGAGGAUCACCCAUGUAGAAGGGCCCGGGCCCG [low energy, MS2 in another position, A 14%] (Eterna round: R96, puzzle: Exclusion NG 2)”: the “apparent KD of MS2 coat protein” value is, setting by setting: (input ligand: FMN 200 uM) 15.7 nM; under setting [1], 10.7 nM; (input ligand: none) 16.1 nM.
On to “CGGUGCUGAGGAUAUACAUGAGGAUCACCCAUGUGUUCUUGCUAGCGUACUGGCAGAUGUAGAAGGCGGUACUG [JL-ex3-3.45 Brourd mod] (puzzle: Exclusion 3)”, for which the “apparent KD of MS2 coat protein” value runs as follows: under setting [3], 99.7 nM; under setting [2], 19.7 nM; under setting [4], 22.7 nM.
For “CGGUGUAACGUAGGAUAUCAUCGCAACUGACGUUGAGAAGGACGACAUGAGGAUCACCCAUGUGAUUUCUCAAUAUUAUACAUC [Prohibition 85 - Jieux - Exclusion NG 1] (Eterna round: R96, puzzle: Exclusion NG 1)”, the “apparent KD of MS2 coat protein” value (input ligand: FMN 200 uM) is 69.6 nM, the “apparent KD of MS2 coat protein” value under setting [1] was found to be 20.4 nM and the “apparent KD of MS2 coat protein” value (input ligand: none) was found to be 19.6 nM.
For “CGUACUCAAGUGAGGAUAUUGUCUCGGAUACGAAACAAGAAGGCACAUGAGGAUCACCCAUGUAGAGAGUACGA [Malc #30 mod 1] (puzzle: Brourd's mod of Exclusion 4)”, under setting [2], the “apparent KD of MS2 coat protein” value came out at 14.5 nM.
On to “CGUCAACAUGAGGAUCACCCAUGUUAGGAUAUGGCGGUCCAUGGUUGGGACUAGACCGCCAGAAGGAGCAUGCG [Eternabot (L1) Solution 54] (Eterna round: R97, puzzle: Exclusion 1)”, for which the “apparent KD of MS2 coat protein” value was 71.9 nM (input ligand: FMN 200 uM) and 86.8 nM (input ligand: none).
In the case of “CGUCCUGUAGUGAGGAUAUUGUCUCGGAUACGAAACAAGAAGGCACAUGAGGAUCACCCAUGUAAUCAGGACGA [Malc #30 mod 12] (puzzle: Brourd's mod of Exclusion 4)”, the “apparent KD of MS2 coat protein” value runs as follows: under setting [3], 14.1 nM; under setting [2], 16.1 nM; under setting [4], 13.3 nM.
For the sequence “CGUCUGUAAGGAUAUGGUUGCAUCAACAUGAGGAUCACCCAUGUAACUUGGGACUAGUGAUUAGAAGGUACGAACG [EX5 #59] (Eterna round: R97, puzzle: Exclusion 5)”, the “apparent KD of MS2 coat protein” value runs as follows: (input ligand: FMN 200 uM) 218 nM; (input ligand: none) 255 nM.
Regarding “CGUCUGUCGGAAGGAUAUGUAGGGUGUCUUUUCCUCAGUACGAAGUACAUGAGGAUCACCCAUGUACAGAAGGUCCACAAUUAA [Essosoedso] (Eterna round: R96, puzzle: Exclusion NG 2)”, the “apparent KD of MS2 coat protein” value was determined as 109 nM (input ligand: FMN 200 uM), 67.9 nM under setting [1] and 75.3 nM (input ligand: none).
Take “CGUGACUCAGGAUAUGUAUUAUAUCACAUGAGGAUCACCCAUGUCCAGCGAAAGCUGGAGGCAGAAGGGAGUCACG [Fiskers Ex 5 - 47] (puzzle: Exclusion 5)”: the “apparent KD of MS2 coat protein” value is, setting by setting: under setting [3], 41.4 nM; under setting [2], 87.6 nM; under setting [4], 106 nM.
For “CUAAAUCAUGUAGGAUAUGCGUAGCGAAGCUAUGCAGAAGGACAUGAGGAUCACCCAUGUUCUUCCGUCUGCGUACAGACGGAA [Mat - Exclusion NG 1 - Mod of JL - D29] (Eterna round: R96, puzzle: Exclusion NG 1)”, the “apparent KD of MS2 coat protein” value was 337 nM (input ligand: FMN 200 uM), 29.1 nM under setting [1] and 38.2 nM (input ligand: none).
As to “CUAAAUCAUGUAGGAUAUGCGUGGCAAAGCUAUGCAGAAGGACAUGAGGAUCACCCAUGUCAUUCCGUCUGCGAACAGACGGGA [Mat - Exclusion NG 1 - Mod of JL - D50] (Eterna round: R96, puzzle: Exclusion NG 1)”, the “apparent KD of MS2 coat protein” value (input ligand: FMN 200 uM) was determined as 161 nM, the “apparent KD of MS2 coat protein” value under setting [1] was found to be 15.4 nM and the “apparent KD of MS2 coat protein” value (input ligand: none) amounted to 20.3 nM.
The matching figures for “CUAAAUCAUGUAGGAUAUGCGUGGCGAAGCUAUGCAGAAGGACAUGAGGAUCACCCAUGUCUUUCCGUCUGCGUACAGACGGGA [JL ENG1 1.20] (Eterna round: R96, puzzle: Exclusion NG 1)”: 151 nM, 14.5 nM and 21.2 nM.
The matching figures for “CUAAAUCAUGUAGGAUAUGCGUGGCGAAGCUAUGCAGAAGGACAUGAGGAUCACCCAUGUUCUUCCGUCUGCGUACAGACGGAA [JL ENG1 1.18] (Eterna round: R96, puzzle: Exclusion NG 1)”: 316 nM, 28.7 nM and 38 nM.
With “CUAAUUAGAGGAUAUACAUGAGGAUCACCCAUGUUCUUCAAGUCGCCAACGGCAUAACGUAGAAGGCUGAGUGG [Eternabot (L1) Solution 32] (Eterna round: R97, puzzle: Exclusion 3)”, the “apparent KD of MS2 coat protein” value stood at 26.4 nM (input ligand: FMN 200 uM) and 25.8 nM (input ligand: none).
The matching figures for “CUACUAGAGACGCGUGGGAACAUGAGGAUCACCCAUGUCAAUGGAGUUUAAACAGGCCCGUCGUUUUGCUCGUCGUG [Eternabot (L2) Solution 41] (Eterna round: R97, puzzle: Sensor, turn-off variant 1)”: 113 nM and 132 nM.
As for “CUACUGAAGCUUUGCUUUAGUCGUACAUGAGGAUCACCCAUGUAGGAUAUGGUAGGCUUUGCUUACUAGAAGGAUAGAGUGAUC [salish99_ExNG3_r04_601] (Eterna round: R96, puzzle: Exclusion NG 3)”, the “apparent KD of MS2 coat protein” value runs as follows: (input ligand: FMN 200 uM) 80.9 nM; under setting [1], 38.3 nM; (input ligand: none) 58.1 nM.
As to “CUAGAUCUUCGGAUCUAGUACAUGAGGAUCACCCAUGUUACGAGUUGAUCCUCAUACAAGCUUUUUGCUCGUCUUAU [Sensor v3 - Turn-off variant 1 - 25] (puzzle: Sensor v3, turn-off variant 1)”, the “apparent KD of MS2 coat protein” value runs as follows: under setting [3], 16.5 nM; under setting [2], 9.03 nM; under setting [4], 13.9 nM.
Regarding “CUAGCGAAUGUAGGAUAUCGGACUGUUUCAGUCUGAGAAGGACAUGAGGAUCACCCAUGUAUAGCUACGUGAGUAGCACGCUAG [JL ENG1 3.90] (Eterna round: R96, puzzle: Exclusion NG 1)”, the “apparent KD of MS2 coat protein” value reads like this: (input ligand: FMN 200 uM) 27.6 nM; under setting [1], 16.1 nM; (input ligand: none) 21.7 nM.
